Results on 2 molecules are retold here after paper doi:10.1101/2024.03.23.586376 (bioRxiv, 2024).

The assay deals with RagC (human (endogenous in H1HeLa), UniProt Q9HB90 1-399). Kind of assay: co-IP.
RagC, sequence (Q9HB90 whole entry): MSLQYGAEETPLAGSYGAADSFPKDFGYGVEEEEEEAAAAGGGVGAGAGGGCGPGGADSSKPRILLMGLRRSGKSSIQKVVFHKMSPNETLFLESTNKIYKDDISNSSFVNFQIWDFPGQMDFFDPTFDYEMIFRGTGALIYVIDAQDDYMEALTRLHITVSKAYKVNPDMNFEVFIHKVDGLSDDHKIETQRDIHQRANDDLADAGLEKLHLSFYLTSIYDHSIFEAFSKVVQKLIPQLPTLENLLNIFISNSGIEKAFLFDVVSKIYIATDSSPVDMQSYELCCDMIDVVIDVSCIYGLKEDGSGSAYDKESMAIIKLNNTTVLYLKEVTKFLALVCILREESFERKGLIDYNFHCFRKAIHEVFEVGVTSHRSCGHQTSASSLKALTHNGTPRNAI

B1: wild-type TFEB (transcription factor EB), C-terminal GFP-tagged construct (natural protein, UniProt P19484 1-476, looked up)
chain: MASRIGLRMQLMREQAQQEEQRERMQQQAVMHYMQQQQQQQQQQLGGPPTPAINTPVHFQSPPPVPGEVLKVQSYLENPTSYHLQQSQHQKVREYLSETYGNKFAAHISPAQGSPKPPPAASPGVRAGHVLSSSAGNSAPNSPMAMLHIGSNPERELDDVIDNIMRLDDVLGYINPEMQMPNTLPLSSSHLNVYSSDPQVTASLVGVTSSSCPADLTQKRELTDAESRALAKERQKKDNHNLIERRRRFNINDRIKELGMLIPKANDLDVRWNKGTILKASVDYIRRMQKDLQKSRELENHSRRLEMTNKQLWLRIQELEMQARVHGLPTTSPSGMNMAELAQQVVKQELPSEEGPGEALMLGAEVPDPEPLPALPPQAPLPLPTQPPSPFHHLDFSHSLSFGGREDEGPPGYPEPLAPGHGSPFPSLSKKDLDLMLLDDSLLPLASDPLLSTMSPEASKASSRRSSFSMEEGDVL
For the molecule B1, the “TFEB/RagC ratio in the co-IP (densitometry), EV-D68-infected cells” value is 0.4 and the “TFEB/RagC ratio in the co-IP (densitometry), mock-infected cells” value is 1.04.

B2: Δ30-TFEB, mutant TFEB construct lacking the first 30 amino acids (RagC binding site), C-terminal GFP-tagged (domain or fragment, UniProt P19484 31-476, looked up)
chain: MHYMQQQQQQQQQQLGGPPTPAINTPVHFQSPPPVPGEVLKVQSYLENPTSYHLQQSQHQKVREYLSETYGNKFAAHISPAQGSPKPPPAASPGVRAGHVLSSSAGNSAPNSPMAMLHIGSNPERELDDVIDNIMRLDDVLGYINPEMQMPNTLPLSSSHLNVYSSDPQVTASLVGVTSSSCPADLTQKRELTDAESRALAKERQKKDNHNLIERRRRFNINDRIKELGMLIPKANDLDVRWNKGTILKASVDYIRRMQKDLQKSRELENHSRRLEMTNKQLWLRIQELEMQARVHGLPTTSPSGMNMAELAQQVVKQELPSEEGPGEALMLGAEVPDPEPLPALPPQAPLPLPTQPPSPFHHLDFSHSLSFGGREDEGPPGYPEPLAPGHGSPFPSLSKKDLDLMLLDDSLLPLASDPLLSTMSPEASKASSRRSSFSMEEGDVL
On to B2, for which the “TFEB/RagC ratio in the co-IP (densitometry), EV-D68-infected cells” value came out at 0.22 and the “TFEB/RagC ratio in the co-IP (densitometry), mock-infected cells” value was found to be 0.18.
